Results: US5871948A

Substrate: NC(=O)c1ccc[n+]([C@@H]2O[C@H](COP(=O)(O)OP(=O)(O)OC[C@H]3O[C@@H](n4cnc5c(N)ncnc54)[C@H](OP(=O)(O)O)[C@@H]3O)[C@@H](O)[C@H]2O)c1
Experiment: purified protein, by the assay type

B1: thermostable isocitrate dehydrogenase (iCDH) purified from Sulfolobus acidocaldarius DSM 639, FERM BP-5567 (Sulfolobus acidocaldarius DSM 639) (protein)
chain: MVMLYKEPQDGEPIKFEKGKWVVPNKPIILYIEGDGIGPEITNSAIRVVNKAVEKAYKSSREIKWLEVYAGEKANKITGDRFPKETQDMLLKYRVVLKGPLETPIGKGWKSINVAIRLMLDLYANIRPVKYIEGLESPLKHPEKVDMIIFRENTDDLYRGIEFPYDSEEAKKIRKFLREELKVDIEDDTGIGLKVMSKFKTQRITRLALNYALQNSRKKVTVMHKGNVMKYTEGSFREWAYEVALNEYRDKIVTEEEINRGVNSEGKVILNDRIADNMLQQIIIRPDEYDIILAPNVNGDYISDAAGALIGNIGMLGGANIGDTGGMFEAIHGTAPKYAGKNVANPTGIIKSCELMLYFMGWSEAARLIEKAINESIKQKKVTQDIARYLGITPLGTKEYTDTLVQIMDSF
B1 showed a Km (other: pH 8.6, 37° C., pH 8.6) of 66 µM, a Km (other: pH 9.5, 37° C., pH 9.5) of 42 µM and a Km (other: pH 10.0, 37° C., pH 10.0) of 48 µM.
